{
  "source": "the supplement of paper PMC9112550",
  "about": "“Optimization of the antimicrobial peptide Bac7 by deep mutational scanning” (BMC Biology, 2022);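 further: peptides expressed intracellularly from a pBAD plasmid library in pooled LB shake-flask culture, induced with 0.3% L-arabinose, DNA abundance read by NGS, three biological replicates, DESeq2 with apeglm shrinkage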",
  "data": [
    {"system": "Escherichia coli TOP10", "experiment": "shrunken log2 fold change of peptide-encoding DNA abundance (4.5 h post-induction vs induction); higher = less antimicrobial activity (less host growth inhibition)", "conditions": "time post-induction: 4.5 h; library: site-saturation at positions 5, 18, 19, 20", "values": [
      {"sequence": "RRIRGRPPRLPRPRPRPLCFPRP", "shrunken log2 fold change": 0.705},
      {"sequence": "RRIRGRPPRLPRPRPRPLCPPRP", "shrunken log2 fold change": 0.422},
      {"sequence": "RRIRGRPPRLPRPRPRPLCYPRP", "shrunken log2 fold change": 0.238},
      {"sequence": "RRIRGRPPRLPRPRPRPLDAPRP", "shrunken log2 fold change": 0.969},
      {"sequence": "RRIRGRPPRLPRPRPRPLDCPRP", "shrunken log2 fold change": 0.141},
      {"sequence": "RRIRGRPPRLPRPRPRPLEEPRP", "shrunken log2 fold change": 1.76},
      {"sequence": "RRIRGRPPRLPRPRPRPLEGPRP", "shrunken log2 fold change": 0.0436},
      {"sequence": "RRIRGRPPRLPRPRPRPLERPRP", "shrunken log2 fold change": 0.577},
      {"sequence": "RRIRGRPPRLPRPRPRPLFSPRP", "shrunken log2 fold change": 0.113},
      {"sequence": "RRIRGRPPRLPRPRPRPLGAPRP", "shrunken log2 fold change": 1.07},
      {"sequence": "RRIRGRPPRLPRPRPRPLKIPRP", "shrunken log2 fold change": 0.365},
      {"sequence": "RRIRGRPPRLPRPRPRPLLKPRP", "shrunken log2 fold change": 1.39},
      {"sequence": "RRIRGRPPRLPRPRPRPLNDPRP", "shrunken log2 fold change": 0.388},
      {"sequence": "RRIRGRPPRLPRPRPRPLPAPRP", "shrunken log2 fold change": 1.33},
      {"sequence": "RRIRGRPPRLPRPRPRPLPTPRP", "shrunken log2 fold change": 1.14},
      {"sequence": "RRIRGRPPRLPRPRPRPLQSPRP", "shrunken log2 fold change": 0.746},
      {"sequence": "RRIRGRPPRLPRPRPRPLQWPRP", "shrunken log2 fold change": 0.534},
      {"sequence": "RRIRGRPPRLPRPRPRPLTKPRP", "shrunken log2 fold change": 0.664},
      {"sequence": "RRIRGRPPRLPRPRPRPLTMPRP", "shrunken log2 fold change": 0.763},
      {"sequence": "RRIRGRPPRLPRPRPRPLVEPRP", "shrunken log2 fold change": 1.2},
      {"sequence": "RRIRGRPPRLPRPRPRPLVPPRP", "shrunken log2 fold change": 0.417},
      {"sequence": "RRIRGRPPRLPRPRPRPLYDPRP", "shrunken log2 fold change": 0.135},
      {"sequence": "RRIRGRPPRLPRPRPRPLYHPRP", "shrunken log2 fold change": 3.13},
      {"sequence": "RRIRGRPPRLPRPRPRPLYSPRP", "shrunken log2 fold change": 0.225},
      {"sequence": "RRIRGRPPRLPRPRPRPLYYPRP", "shrunken log2 fold change": -0.13},
      {"sequence": "RRIRGRPPRLPRPRPRPMACPRP", "shrunken log2 fold change": -0.119},
      {"sequence": "RRIRGRPPRLPRPRPRPMAMPRP", "shrunken log2 fold change": 0.138},
      {"sequence": "RRIRGRPPRLPRPRPRPMDQPRP", "shrunken log2 fold change": 0.489},
      {"sequence": "RRIRGRPPRLPRPRPRPMFVPRP", "shrunken log2 fold change": 0.39},
      {"sequence": "RRIRGRPPRLPRPRPRPMFYPRP", "shrunken log2 fold change": 1.07},
      {"sequence": "RRIRGRPPRLPRPRPRPMHFPRP", "shrunken log2 fold change": -0.0109},
      {"sequence": "RRIRGRPPRLPRPRPRPMHQPRP", "shrunken log2 fold change": 0.696},
      {"sequence": "RRIRGRPPRLPRPRPRPMHVPRP", "shrunken log2 fold change": 0.0539},
      {"sequence": "RRIRGRPPRLPRPRPRPMIPPRP", "shrunken log2 fold change": -0.219},
      {"sequence": "RRIRGRPPRLPRPRPRPMKHPRP", "shrunken log2 fold change": 0.0417},
      {"sequence": "RRIRGRPPRLPRPRPRPMKQPRP", "shrunken log2 fold change": 0.316},
      {"sequence": "RRIRGRPPRLPRPRPRPMLAPRP", "shrunken log2 fold change": 1.9},
      {"sequence": "RRIRGRPPRLPRPRPRPMLQPRP", "shrunken log2 fold change": 0.324},
      {"sequence": "RRIRGRPPRLPRPRPRPMLTPRP", "shrunken log2 fold change": 1.04},
      {"sequence": "RRIRGRPPRLPRPRPRPMLWPRP", "shrunken log2 fold change": 0.737},
      {"sequence": "RRIRGRPPRLPRPRPRPMMDPRP", "shrunken log2 fold change": 0.66},
      {"sequence": "RRIRGRPPRLPRPRPRPMMEPRP", "shrunken log2 fold change": 0.372},
      {"sequence": "RRIRGRPPRLPRPRPRPMPGPRP", "shrunken log2 fold change": 0.479},
      {"sequence": "RRIRGRPPRLPRPRPRPMQEPRP", "shrunken log2 fold change": 0.161},
      {"sequence": "RRIRGRPPRLPRPRPRPMQRPRP", "shrunken log2 fold change": 1.29},
      {"sequence": "RRIRGRPPRLPRPRPRPMQTPRP", "shrunken log2 fold change": 0.0492},
      {"sequence": "RRIRGRPPRLPRPRPRPMQYPRP", "shrunken log2 fold change": -0.21},
      {"sequence": "RRIRGRPPRLPRPRPRPMRQPRP", "shrunken log2 fold change": 0.453},
      {"sequence": "RRIRGRPPRLPRPRPRPMSAPRP", "shrunken log2 fold change": 0.702},
      {"sequence": "RRIRGRPPRLPRPRPRPMTGPRP", "shrunken log2 fold change": 0.427},
      {"sequence": "RRIRGRPPRLPRPRPRPMTIPRP", "shrunken log2 fold change": 0.0989},
      {"sequence": "RRIRGRPPRLPRPRPRPMTSPRP", "shrunken log2 fold change": 0.445},
      {"sequence": "RRIRGRPPRLPRPRPRPMVYPRP", "shrunken log2 fold change": 0.438},
      {"sequence": "RRIRGRPPRLPRPRPRPMYQPRP", "shrunken log2 fold change": -0.0304},
      {"sequence": "RRIRGRPPRLPRPRPRPNERPRP", "shrunken log2 fold change": 0.108},
      {"sequence": "RRIRGRPPRLPRPRPRPNETPRP", "shrunken log2 fold change": 0.0274},
      {"sequence": "RRIRGRPPRLPRPRPRPNGCPRP", "shrunken log2 fold change": 0.12},
      {"sequence": "RRIRGRPPRLPRPRPRPNKGPRP", "shrunken log2 fold change": -0.0466},
      {"sequence": "RRIRGRPPRLPRPRPRPNKMPRP", "shrunken log2 fold change": 0.162},
      {"sequence": "RRIRGRPPRLPRPRPRPNLRPRP", "shrunken log2 fold change": 0.283},
      {"sequence": "RRIRGRPPRLPRPRPRPNLSPRP", "shrunken log2 fold change": 0.477},
      {"sequence": "RRIRGRPPRLPRPRPRPNMMPRP", "shrunken log2 fold change": 0.0511},
      {"sequence": "RRIRGRPPRLPRPRPRPNMQPRP", "shrunken log2 fold change": 0.492},
      {"sequence": "RRIRGRPPRLPRPRPRPNNDPRP", "shrunken log2 fold change": 0.247},
      {"sequence": "RRIRGRPPRLPRPRPRPNNIPRP", "shrunken log2 fold change": -0.163},
      {"sequence": "RRIRGRPPRLPRPRPRPNPIPRP", "shrunken log2 fold change": 0.0839},
      {"sequence": "RRIRGRPPRLPRPRPRPNPMPRP", "shrunken log2 fold change": 0.17},
      {"sequence": "RRIRGRPPRLPRPRPRPNQSPRP", "shrunken log2 fold change": 0.17},
      {"sequence": "RRIRGRPPRLPRPRPRPNRMPRP", "shrunken log2 fold change": -0.00965},
      {"sequence": "RRIRGRPPRLPRPRPRPNRNPRP", "shrunken log2 fold change": 0.00949},
      {"sequence": "RRIRGRPPRLPRPRPRPNSIPRP", "shrunken log2 fold change": 0.00326},
      {"sequence": "RRIRGRPPRLPRPRPRPNTQPRP", "shrunken log2 fold change": 0.224},
      {"sequence": "RRIRGRPPRLPRPRPRPNTSPRP", "shrunken log2 fold change": 0.172},
      {"sequence": "RRIRGRPPRLPRPRPRPNVHPRP", "shrunken log2 fold change": 0.167},
      {"sequence": "RRIRGRPPRLPRPRPRPNVLPRP", "shrunken log2 fold change": -0.0548}
    ]}
  ]
}
